The target of one assay is IPK2β, Split-LUC fusion. The experiment in a line: Split-LUC. The conditions noted are these: cluc-IPK2β, 35S::IPCK1-flag co-infiltrated (1:1:2), parent value is P2 (nluc-GRF4, cluc-IPK2β …), parent: 7442.09.
A further assay concerns the target T1, IPK1-HIS (Arabidopsis thaliana, UniProt Q93YN9 1-451).
T1 construct: IPK1, inositol polyphosphate kinase, Arabidopsis thaliana; the CDS was cloned into pCOLD-TF; source: E. coli BL21 (DE3), pCOLD-TF, purified
T1 sequence (looked up): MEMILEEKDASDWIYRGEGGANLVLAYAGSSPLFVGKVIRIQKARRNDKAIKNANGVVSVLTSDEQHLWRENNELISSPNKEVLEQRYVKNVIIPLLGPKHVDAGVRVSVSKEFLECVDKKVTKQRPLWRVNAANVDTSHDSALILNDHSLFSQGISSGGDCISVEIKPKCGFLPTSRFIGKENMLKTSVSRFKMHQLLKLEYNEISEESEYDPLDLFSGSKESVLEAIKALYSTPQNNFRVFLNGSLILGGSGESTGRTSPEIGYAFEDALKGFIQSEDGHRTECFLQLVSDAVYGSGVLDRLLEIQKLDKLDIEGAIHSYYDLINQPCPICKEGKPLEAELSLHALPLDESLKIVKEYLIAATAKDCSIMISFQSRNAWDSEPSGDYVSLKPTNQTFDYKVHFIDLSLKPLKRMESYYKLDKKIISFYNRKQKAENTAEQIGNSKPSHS
As to the kind of experiment: pull-down; in vitro; GST- and HIS-tagged proteins from E. coli BL21 (DE3); bait on GST or Ni-NTA beads, incubated with the protein of the other tag on ice for 2 h, washed with PBS, blot with anti-HIS and anti-GST. The conditions noted are these: both partners purified.

As to “GRF4, Split-LUC fusion (from UniProt P46077) S242A”, in the assay with IPK2β, Split-LUC fusion (P3: nluc-GRF4 S242A, Total cps 452167, Areas 116.3), the response (cps (average)) stood at 3890. Consider “GRF4, Split-LUC fusion (from UniProt P46077) S242D”, for which, in the assay with IPK2β, Split-LUC fusion (P4: nluc-GRF4 S242D, Total cps 2045502, Areas 266), the response (cps (average)) came out at 7690.

B1: GRF4-GST (natural protein, Arabidopsis thaliana, UniProt P46077 1-267, looked up)
chain: MAAPPASSSAREEFVYLAKLAEQAERYEEMVEFMEKVAEAVDKDELTVEERNLLSVAYKNVIGARRASWRIISSIEQKEESRGNDDHVTTIRDYRSKIESELSKICDGILKLLDTRLVPASANGDSKVFYLKMKGDYHRYLAEFKTGQERKDAAEHTLTAYKAAQDIANAELAPTHPIRLGLALNFSVFYYEILNSPDRACNLAKQAFDEAIAELDTLGEESYKDSTLIMQLLRDNLTLWTSDMQDESPEEIKEAAAPKPAEEQKEI
notes: GRF4, 14-3-3 protein, Arabidopsis thaliana; the CDS was cloned into pGEX-4T-1; source: E. coli BL21 (DE3), held on GST beads
Turning to B1, the binding result with IPK1-HIS is listed as “binds”.

The values are drawn from paper PMC11178898, “A clade of receptor-like cytoplasmic kinases and 14-3-3 proteins coordinate inositol hexaphosphate accumulation” (Nature Communications, 2024).
